This note sets out measurements from patent publication US20140274782A1 (Stanford University, published 2014).

Assay [1] concerns the target MGC4473, G9a-methylated (human). The assay is described as follows: ProtoArray methylated with G9a SET domain.
Experimental: (§1) Briefly, a ProtoArray (Invitrogen, version 5.0) was incubated overnight with 50 μg of GST or recombinant GSTtagged G9a SET domain and the cofactor SAM.
(§2) Arrays were analyzed using GenePix Pro 6.1 software (Molecular Devices) and feature values were assigned to proteins using the array list provided by Invitrogen. We designated the following criteria for “hits”: GST array signal-to-noise ratio (SNR) less than or equal to 1.5, G9a array SNR greater than or equal to 10, and a difference between the G9a array SNR and the GST array SNR of greater than or equal to 12. Hits were individually visually validated. Proteins were removed from the list of potential substrates if irregular array features appeared to interfere with the array spots or SNR calculations.
(§3) Protein arrays bearing almost 9500 recombinant human proteins were methylated using GST-tagged recombinant G9a SET domain or GST alone as a control as shown in FIG. 4. […] Results were filtered for proteins scoring a GST array signal-to-noise ratio (SNR) less than or equal to 1.5, a G9a array SNR greater to or equal to 10, and a difference between the G9a and GST SNRs of greater than or equal to 12. Subsequent proteins were individually inspected for irregular array features.
In assay [2] the target is LOC145788, G9a-methylated (human). In words: ProtoArray methylated with G9a SET domain.
Experimental: as §1, §2, §3
Assay [3] addresses cDNA clone IMAGE:4623222 product, G9a-methylated (human). In words: ProtoArray methylated with G9a SET domain.
Experimental: as §1, §2, §3
Assay [4] addresses LOC400500, G9a-methylated (human). In words: ProtoArray methylated with G9a SET domain.
Experimental: as §1, §2, §3
For assay [5], the target named is T1, SH3YL1-SH3 domain containing, Ysc84-like 1 (S. cerevisiae) (SH3YL1) (human, UniProt Q96HL8 1-342, limits assumed).
T1 sequence (looked up): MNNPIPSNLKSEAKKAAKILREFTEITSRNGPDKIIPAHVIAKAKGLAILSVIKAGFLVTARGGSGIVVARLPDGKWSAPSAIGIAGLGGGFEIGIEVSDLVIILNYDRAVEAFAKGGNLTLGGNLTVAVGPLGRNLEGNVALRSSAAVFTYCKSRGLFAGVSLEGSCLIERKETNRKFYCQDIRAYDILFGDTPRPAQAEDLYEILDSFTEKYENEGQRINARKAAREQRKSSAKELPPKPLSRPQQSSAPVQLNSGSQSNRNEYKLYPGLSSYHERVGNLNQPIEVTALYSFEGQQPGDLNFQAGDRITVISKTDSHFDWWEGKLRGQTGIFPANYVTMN
The assay is described as follows: ProtoArray, GST-treated control array.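 Also: human protein microarray (about 9500 recombinant proteins) incubated overnight with GST alone plus SAM cofactor as the negative control for G9a SET domain methylation.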

Assay [6] addresses T2, PPIL5-Peptidylprolyl isomerase-like 5 (human, UniProt Q96L50 1-414, limits assumed).
T2 sequence (looked up): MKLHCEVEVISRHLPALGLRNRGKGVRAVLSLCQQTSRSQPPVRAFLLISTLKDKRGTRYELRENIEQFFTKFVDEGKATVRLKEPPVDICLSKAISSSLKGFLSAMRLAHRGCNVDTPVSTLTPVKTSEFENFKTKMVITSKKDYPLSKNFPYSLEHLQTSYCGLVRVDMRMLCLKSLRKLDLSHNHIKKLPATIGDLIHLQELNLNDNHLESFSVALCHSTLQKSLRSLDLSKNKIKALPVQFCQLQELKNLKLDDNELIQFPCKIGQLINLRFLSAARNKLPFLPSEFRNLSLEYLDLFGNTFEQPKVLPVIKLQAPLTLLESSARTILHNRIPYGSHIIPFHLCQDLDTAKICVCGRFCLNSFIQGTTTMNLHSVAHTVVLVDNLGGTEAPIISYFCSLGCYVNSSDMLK
The assay is described as follows: ProtoArray, GST-treated control array.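 Also: human protein microarray (about 9500 recombinant proteins) incubated overnight with GST alone plus SAM cofactor as the negative control for G9a SET domain methylation.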

Assay [7] deals with T3, BHMT-betaine-homocysteine methyltransferase (BHMT) (human, UniProt Q93088 1-406).
T3 sequence (looked up): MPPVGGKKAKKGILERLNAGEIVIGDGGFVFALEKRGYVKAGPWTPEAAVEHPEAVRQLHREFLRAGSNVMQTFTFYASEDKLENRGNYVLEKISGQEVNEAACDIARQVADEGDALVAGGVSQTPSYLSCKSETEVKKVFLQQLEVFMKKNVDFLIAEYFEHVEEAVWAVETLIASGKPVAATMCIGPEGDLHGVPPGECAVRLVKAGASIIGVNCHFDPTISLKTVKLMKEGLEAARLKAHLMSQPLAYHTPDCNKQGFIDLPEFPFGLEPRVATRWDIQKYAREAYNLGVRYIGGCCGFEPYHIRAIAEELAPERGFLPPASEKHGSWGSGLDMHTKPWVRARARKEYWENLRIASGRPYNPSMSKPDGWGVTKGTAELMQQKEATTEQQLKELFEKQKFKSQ
In words: ProtoArray, GST-treated control array.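 Also: human protein microarray (about 9500 recombinant proteins) incubated overnight with GST alone plus SAM cofactor as the negative control for G9a SET domain methylation.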

For assay [8], the target named is T4, KCTD7-potassium channel tetramerisation domain containing 7 (KCTD7) (human, UniProt Q96MP8 1-289, limits assumed).
T4 sequence (looked up): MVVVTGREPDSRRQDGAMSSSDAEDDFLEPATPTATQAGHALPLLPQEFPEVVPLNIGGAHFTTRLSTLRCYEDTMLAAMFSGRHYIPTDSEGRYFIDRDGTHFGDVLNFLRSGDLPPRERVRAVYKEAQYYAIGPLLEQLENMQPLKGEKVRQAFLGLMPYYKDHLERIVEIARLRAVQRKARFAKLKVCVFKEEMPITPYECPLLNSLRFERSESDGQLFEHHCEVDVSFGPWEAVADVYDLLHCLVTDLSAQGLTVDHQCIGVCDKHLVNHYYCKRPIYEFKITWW
The assay is described as follows: ProtoArray, GST-treated control array.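 Also: human protein microarray (about 9500 recombinant proteins) incubated overnight with GST alone plus SAM cofactor as the negative control for G9a SET domain methylation.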

The target of assay [9] is T5, TCTA-T-cell leukemia translocation altered gene (TCTA) (human, UniProt P57738 1-103).
T5 sequence (looked up): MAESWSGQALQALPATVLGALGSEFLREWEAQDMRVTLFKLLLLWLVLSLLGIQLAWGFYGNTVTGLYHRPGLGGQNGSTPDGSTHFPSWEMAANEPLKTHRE
The assay is described as follows: ProtoArray, GST-treated control array.

Assay [10] has as its target T6, MGC10433-RNA-binding protein 42 (human, UniProt Q9BTD8 1-480, limits assumed).
T6 sequence (looked up): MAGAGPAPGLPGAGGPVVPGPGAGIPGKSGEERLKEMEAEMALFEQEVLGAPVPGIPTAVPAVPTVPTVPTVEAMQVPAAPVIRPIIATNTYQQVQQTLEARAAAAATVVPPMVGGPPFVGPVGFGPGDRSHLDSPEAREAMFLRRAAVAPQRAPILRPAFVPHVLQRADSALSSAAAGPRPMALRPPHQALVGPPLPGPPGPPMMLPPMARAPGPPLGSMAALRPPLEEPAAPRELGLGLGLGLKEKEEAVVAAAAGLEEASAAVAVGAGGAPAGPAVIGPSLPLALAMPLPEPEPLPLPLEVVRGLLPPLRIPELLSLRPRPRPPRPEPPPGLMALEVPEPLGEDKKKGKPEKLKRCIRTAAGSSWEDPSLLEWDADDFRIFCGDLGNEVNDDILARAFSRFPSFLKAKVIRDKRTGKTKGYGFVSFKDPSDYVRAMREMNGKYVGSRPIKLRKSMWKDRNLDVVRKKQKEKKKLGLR
The assay is described as follows: ProtoArray, GST-treated control array.

Assay [11] addresses T7, GHRL-ghrelin/obestatin preprohormone (GHRL) (human, UniProt Q9UBU3 1-117, limits assumed).
T7 sequence (looked up): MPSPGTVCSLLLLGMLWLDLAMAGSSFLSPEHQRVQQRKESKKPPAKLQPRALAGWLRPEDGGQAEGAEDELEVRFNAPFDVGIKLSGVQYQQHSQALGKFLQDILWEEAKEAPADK
The assay is described as follows: ProtoArray, GST-treated control array.

For assay [12], the target named is TTC27-Tetratricopeptide repeat protein 27 (human, UniProt Q6P3X3 1-843). The assay is described as follows: ProtoArray, GST-treated control array.

B1: 3× Flag-3×MBT (designed binder)
chain: EEWSSSQPATGEKKECWSWESYLEEQKAITAPVSLFQDSQAVTHNKNGFKLGMKLEGIDPQHPSMYFILTVAEVCGYRLRLHFDGYSECHDFWVNANSPDIHPAGWFEKTGHKLQPPKGYKEEEFSWSQYLRSTRAQAAPKHLFVSQSHSPPPLGFQVGMKLEAVDRMNPSLVCVASVTDVVDSRFLVHFDNWDDTYDYWCDPSSPYIHPVGWCQKQGKPLTPPQDYPDPDNFCWEKYLEETGASAVPTWAFKVRPPHSFLVNMKLEAVDRRNPALIRVASVEDVEDHRIKIHFDGWSHGYDFWIDADHPDIHPAGWCSKTGHPLQPPLGPREPSSASPGG
notes: also called Flag-tagged 3×MBT; 3xFlag-3xMBT; not shown: made by PreScission cleavage of GST-3× Flag-3×MBT
With B1, the “G9a Average SNR” value was 21.7 in assay [1], 14.1 in [2], 18.8 in [3] and 29 in [4]. For the same molecule, the “GST Average SNR” value in assay [5] is 0.377; in assay [6], -0.512; in assay [7] it was 1.44; in assay [8], 1.09; in [9], 1.18; in assay [10], -0.357. The figures for the “GST Average SNR” value in assay [11] and in assay [12] were 0.402 and 0.496, respectively.
